B1: SEQ ID NO 26 (peptide)
peptide: NHDNTKKVWILA
B2: SEQ ID NO 17 (peptide)
peptide: LEAKIWVVPAPS
notes: Selected from random M13KE phage-display libraries
B3: SEQ ID NO 42 (peptide)
peptide: NAKLWQIPAIPH
B4: SEQ ID NO 23 (peptide)
peptide: KVWSLDISAPQH
B5: SEQ ID NO 40 (peptide)
peptide: KLWIPHTSQPFL
B6: SEQ ID NO 38 (peptide)
peptide: KLWTIPSNDYPP
B7: SEQ ID NO 37 (peptide)
peptide: FPHKLWVLPVKT
B8: SEQ ID NO 46 (peptide)
peptide: TTPHRVWNLPLEAQQ
B9: SEQ ID NO 24 (peptide)
peptide: ADVLHATPSEKVWLL
B10: SEQ ID NO 43 (peptide)
peptide: KLWVPQNRPELV
B11: SEQ ID NO 35 (peptide)
peptide: KLWILADNFTNR
B12: SEQ ID NO 20 (peptide)
peptide: HLKVWEVRSPGP
B13: SEQ ID NO 19 (peptide)
peptide: VYSKVWLLPAGQ
B14: SEQ ID NO 22 (peptide)
peptide: KVWIPTSTWLQT
B15: SEQ ID NO 41 (peptide)
peptide: KLWDITAPLPKP
B16: SEQ ID NO 36 (peptide)
peptide: INSPHELKKLWLLPP
B17: SEQ ID NO 25 (peptide)
peptide: KVVDSNHKVWLVSQT
B18: SEQ ID NO 45 (peptide)
peptide: TSTPHRVWQLPV
B19: SEQ ID NO 21 (peptide)
peptide: NAKVWTVPSKPP
B20: SEQ ID NO 18 (peptide)
peptide: TGQTKIWYPHST

Target: T1, HGPRBMY3 (human, UniProt Q9H1C0 1-372)
T1 construct: on CHO-NFAT/Galpha15 cells for the reporter assay; also called GPCR19; GPR92; not shown: its amino
T1 sequence (Q9H1C0 whole entry): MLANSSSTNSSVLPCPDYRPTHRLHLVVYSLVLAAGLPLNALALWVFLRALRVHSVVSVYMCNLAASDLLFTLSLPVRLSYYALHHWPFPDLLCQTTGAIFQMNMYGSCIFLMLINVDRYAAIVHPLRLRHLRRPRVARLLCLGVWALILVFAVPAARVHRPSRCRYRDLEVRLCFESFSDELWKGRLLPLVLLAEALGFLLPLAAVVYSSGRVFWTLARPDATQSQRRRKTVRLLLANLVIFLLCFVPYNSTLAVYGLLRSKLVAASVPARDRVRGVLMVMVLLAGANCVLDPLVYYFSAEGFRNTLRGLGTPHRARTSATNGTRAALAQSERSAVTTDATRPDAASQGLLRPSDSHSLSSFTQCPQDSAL
Assay: cell-based phage-display panning on CHO-K1 cells transfected with HGPRBMY3; sequencing of eluted phage
Protocol: On the day of panning, growth medium was discarded and cells were washed with 10 ml PBS by allowing the buffer to flow over the cells. The PBS was removed and 10 ml Tris-EDTA detaching buffer (Gibco Cat. # 13150-016; no trypsin) was added for 2 min. Plates were tapped and/or pipetted up and down to detach cells. This was done quickly to minimize the exposure of the cells to this reagent. Cells were pelleted by centrifugation at 3K, and then washed with 20 ml PBS. Cells were resuspended cells in PBS with 2% milk blocking agent plus protease inhibitor (EDTA-free; Roche Cat. # 1 873 580). For each library, cell suspensions of ˜500 μl were used. Cells were blocked for 30-60 min with gentle rocking at room temperature. The integrin-coated wells were washed 3×in PBST, then blocked with 2% BSA in PBS for 30 min or more. To preadsorb against integrin, input phage was added to the integrin-coated wells, and incubated for 30 min or more.
At this stage, the blocked parental cells were divided into the required number of aliquots (500 μl aliquot/library). The phage supernatants were added from the integrin-preadsorption step. Preadsorption against the parental cells was carried out for 30 min or more with gentle rocking. The blocked transfected cells were divided into the required number of aliquots (500 μl aliquot per library). The transfected cells were pelleted, and the supernatant was discarded. The phage supernatants from the two preadsorption steps were added, and cells were incubated with gentle rocking for 2 h or more. Cells were washed 6-8× with PBST at 5 min intervals. Each wash was performed by gently pipetting the cells up and down, and cells were centrifuged at low speed. To recover binding phage from the washed cell pellets, 500 μl 6M urea, pH 3.0 was added for 15 min. This was neutralized with 10 μl 2 M Tris (not adjusted for pH). The phage in the eluate were titered and arnplified by standard procedures (NEB protocol for PhD phage libraries). In some cases, the eluate was viscous due to the presence of chromosomal DNA.
Standard procedures were used. Phage in eluates were infected into E. coli host strain ER2738 (New England Biolabs) for all M13KE-based libraries, and cells were plated for plaques. Colonies were grown in liquid medium and analyzed by standard sequencing procedures.

Row | Binder | binding result
1 | B1 | binds
2 | B2 | binds
3 | B3 | binds
4 | B4 | binds
5 | B5 | binds
6 | B6 | binds
7 | B7 | binds
8 | B8 | binds
9 | B9 | binds
10 | B10 | binds
11 | B11 | binds
12 | B12 | binds
13 | B13 | binds
14 | B14 | binds
15 | B15 | binds
16 | B16 | binds
17 | B17 | binds
18 | B18 | binds
19 | B19 | binds
20 | B20 | binds
